According to publication PMC5009729 (Nucleic Acids Research, 2016):

Target: the molecule itself
Test: native MS

B1: Cse2 (natural protein)
chain: MADEIDAMALYRAWQQLDNGSCAQIRRVSEPDELRDIPAFYRLVQPFGWENPRHQQALLRMVFCLSAGKNVIRHQDKKSEQTTGISLGRALANSGRINERRIFQLIRADRTADMVQLRRLLTHAEPVLDWPLMARMLTWWGKRERQQLLEDFVLTTNKNA
  binding result: binds
